Sequences and labels used below:
B1: DFPD1-9 full-length anti-PD-1 monoclonal antibody (antibody, human IgG4 S228P, kappa, V domains shown)
VH: QVQLVESGGGVVQPGRSLRLDCKASGITFSNYGMHWVRQAPGKGLEWVAVIWYDSSRKYYADSVKGRFTISRDNSKNTLFLQMNSLRAEDTAVYYCATNNDYWGQGTLVTVSS
VL: DIQMTQSPSSLSASVGDRVTITCRASQSIHNYLDWYQQKPGKAPKLLIYNASTRATGVPSRFSGSGSGTDFTLTISSLQPEDFATYYCQQELHLPLTFGQGTKVEIKR
notes: Expressed in HEK293E cells and purified on protein A
B2: DFPD1-13 full-length anti-PD-1 monoclonal antibody (antibody, human IgG4 S228P, kappa, V domains shown)
VH: B1 VH with Y32N
VL: B1 VL with I29V, H30S, N50D, E91N, L92M, H93Q
notes: as for B1
B3: DFPD1-11 full-length anti-PD-1 monoclonal antibody (antibody, human IgG4 S228P, kappa, V domains shown)
VH: B1 VH with Y32N
VL: B1 VL
notes: as for B1
B4: DFPD1-10 full-length anti-PD-1 monoclonal antibody (antibody, human IgG4 S228P, kappa, V domains shown)
VH: B1 VH
VL: B1 VL with I29V, H30S, N50D, E91N, L92M, H93Q
notes: as for B1
B5: DFPD1-12 full-length anti-PD-1 monoclonal antibody (antibody, human IgG4 S228P, kappa, V domains shown)
VH: B1 VH with S55G, R57K
VL: B1 VL
notes: as for B1

Residue numbers refer to the chain shown, from its start.

The target of the first assay is T1, PD-1 on PD1-CHO cells.
T1 construct: also called cell-surface PD-1
T1 sequence (chain, as listed by the source limits assumed): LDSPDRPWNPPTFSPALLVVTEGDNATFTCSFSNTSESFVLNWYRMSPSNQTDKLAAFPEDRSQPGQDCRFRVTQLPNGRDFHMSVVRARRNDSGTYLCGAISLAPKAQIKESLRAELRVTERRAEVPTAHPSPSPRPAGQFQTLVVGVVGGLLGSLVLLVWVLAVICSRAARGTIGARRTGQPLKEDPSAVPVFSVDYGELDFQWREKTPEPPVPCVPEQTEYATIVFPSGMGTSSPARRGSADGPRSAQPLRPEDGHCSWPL
As to the kind of experiment: cell ELISA on fixed PD1-CHO cells, anti-human Fc-HRP. The procedure:
Firstly, the CHO cell line with stable PD-1 over-expression was made and named PD1-CHO. After coating 96-well plates with gelatin, PD1-CHO cells was digested by trypsin and then stopped. After centrifuging and suspending these cells, the cells were diluted to 2×10⁵ cells/mL, 100 μL per well in 96-well plates, totally 12 well×6 row, namely 2×10⁴ cells/well, and cultured at 5% CO₂, 37° C. overnight. The culture medium were discarded the next day, and the wells were washed one time with 350 μL precooling PBS. Freshly prepared 2% PFA was added to fix 5 minutes, and then PBS was used to wash two times.
The full-length anti-PD-1 antibody of double dilution was added into the cell plates, the diluent is PBS with 0.5% BSA. Sample concentration started from 100 μg/mL, diluting for 8 times, totally 12 gradients of dilution. After incubating for 30 minutes at room temperature, supernatant was discarded, and wells were washed three times with 350 μL pre-cooled PBS. The anti-human Fc-HRP Secondary antibodies diluted at 1:5000 were added, and incubated for 15 minutes at room temperature. After washing three times with 350 μL PBS, 100 μL TMB stain solution was added into each well, staining for 15 to 30 minutes at room temperature. After adding 50 μL2 mol/L H2504 per well to stop the staining, the optical density was read at 450 nm and 630 nm wavelength with the microplate reader.
In the case of B1, the EC50 (read off the curve) – broadly, the concentration giving half of the maximal effect – was approximately 2 nM.
The same measure, in the same setting: in the case of B2 it was approximately 2 nM; in that of B3, approximately 4 nM; in that of B4, approximately 0.9 nM.
On the same count and under the same terms, in the case of B5 it was approximately 2 nM.

A further assay deals with T2, PD-1-His (UniProt Q15116 25-167, limits assumed).
T2 construct: also called antigen PD-1-His; not shown: His tag
T2 sequence (Q15116 25-167 limits assumed): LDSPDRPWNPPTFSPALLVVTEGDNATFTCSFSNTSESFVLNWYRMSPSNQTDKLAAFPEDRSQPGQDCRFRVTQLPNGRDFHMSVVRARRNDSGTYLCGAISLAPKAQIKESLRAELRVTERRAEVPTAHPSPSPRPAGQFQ
Kind of assay: competition ELISA: antibody premixed with 4 ug/mL PD1-His, added to coated PDL1-Fc, bound PD1-His detected with anti-His-HRP. The procedure: PDL1-Fc in pH9.6 carbonate buffer solution was used for coating plates at 4° C. for overnight. After washing five times with PBST, the wells were blocked for two hours with 1% BSA-PBS at 37° C. […] After incubating at 37° C. for one hour, the wells were washed five times with PBST, and then the mouse anti-His antibody HRP labeled with 1% BSA-PBS diluted were added. After incubating at 37° C. for one hour, the wells were stained with TMB stain solution kit, 100 μL/well, for 8 minutes at room temperature. The reaction was stopped with 50 µL of 10% H₂SO₄/well. The optical density was read at 450 nm and 630 nm wavelength. The result is shown in FIG. 16, DFPD1-9, DFPD1-10, DFPD1-11, DFPD1-12 and DFPD1-13 can inhibit the binding of PD-1 and PD-L1.
On the technique in general: In an ELISA, binding on a coated surface is turned into a signal by an enzyme label.
On to B1, for which the “IC50 (read off the curve)” value is approximately 0.1 µg/mL.
Still for that read-out and setting: in the case of B2 it was approximately 0.08 µg/mL; in that of B3, approximately 0.07 µg/mL.
The same measure, in the same setting: the same measure for B4: approximately 0.1 µg/mL; for B5: approximately 0.05 µg/mL.

In the next assay the target is T3, PD-1 (analyte in the BIAcore X100 assay) (UniProt Q15116 25-167, limits assumed).
T3 construct: also called Programmed Cell Death 1
T3 sequence (Q15116 25-167 limits assumed): as above
Kind of assay: SPR, BIAcore X100, antibody captured by anti-human IgG on CM5 chip, PD-1 as analyte. How it is done:
The affinity of the antibodies were determined by ligand-capture method. Anti-human IgG was coupled to the surface of CM5 chip, and DFPD1-9, DFPD1-10, DFPD1-11, DFPD1-12 and DFPD1-13 were diluted respectively to ensure the capturing about 300 RU of the antibody by the anti-human IgG.
(SPR reads the build-up and loss of mass on a sensor chip optically.)
On to B1, for which the affinity, expressed as Kd, was 6.43 nM; the koff (commonly a measure of how fast the partners let go of each other) worked out at 0.000105 s⁻¹; the kon (as a rule, the second-order rate constant of association) was found to be 16300 M⁻¹ s⁻¹.
On the same counts, the results for B2 are 9.5 nM, 0.000108 s⁻¹ and 18100 M⁻¹ s⁻¹.
For B3, in that order: 10.8 nM, 0.000102 s⁻¹ and 9360 M⁻¹ s⁻¹.
For B4, in that order: 3.96 nM, 0.00013 s⁻¹ and 32800 M⁻¹ s⁻¹.
For the molecule B5, the Kd (usually the equilibrium constant for the complex coming apart) stood at 22.4 nM, the koff was 0.000298 s⁻¹ and the kon was determined as 13300 M⁻¹ s⁻¹.

The target of the next assay is T2, PD-1-His. Kind of assay: ELISA on coated PD-1-His (60 ng/well), anti-human Fc-HRP. How it is done: After washing five times with 300 μl/well PBST, the wells were blocked for two hours with 1% BSA-PBS at 37° C. Different dilution of the antibodies DFPD1-9, DFPD1-10, DFPD1-11, DFPD1-12 and DFPD1-13 were added. The highest concentration of these five kinds of antibodies is 16 μg/mL, diluted for 4 times to 11 gradients, and the last well was used as the negative control which was added PBS diluent only. After incubating at 37° C. for one hour, the wells were washed five times with 300 μL/well of PBST, then adding the anti-human Fc-HRP secondary antibodies diluted at 1:40000 with 1% BSA-PBS, incubating at 37° C. for one hour. After staining with TMB stain solution kit, 100 μL/well, for 8 minutes at room temperature, the reaction was stopped with 50 µL of 2 mol/L H₂SO₄/well, and the optical density was determined at 450 nm and 630 nm wavelength.
With B1, the “EC50 (read off the curve)” value was approximately 0.006 µg/mL.
As for B2, the “EC50 (read off the curve)” value was approximately 0.008 µg/mL.
Still for that read-out and setting: in the case of B3 it was approximately 0.006 µg/mL; in that of B4, approximately 0.007 µg/mL.
On the same count and under the same terms, in the case of B5 it was approximately 0.006 µg/mL.

The values are drawn from patent US20190144541A1 (BEIJING DONGFANG BIOTECH, published 2019).
